B1: library; numbered along this chain (parent)
chain: MAAAAAAAAEQQSSNGPVKKSMREKAVERRSVNKEHNSNFKAGYIPIDEDRLHKTGLRGRKGNLAICVIILLFILAVINLIITLVIWAVIRIGPNGCDSMEFHESGLLRFKQVSDMGVIHPLYKSTVGGRRNENLVITGNNQPIVFQQGTTKLSVENNKTSITSDIGMQFFDPRTQNILFSTDYETHEFHLPSGVKSLNVQKASTERITSNATSDLNIKVDGRAIVRGNEGVFIMGKTIEFHMGGNMELKAENSIILNGSVMVSTTRLPSSSSGDQLGSGDWVRYKLCMCADGTLFKVQVTSQNMGCQISDNPCGNTH

The variants in this data set derive from B1. As to the kind of experiment: SGCB cell-surface expression functional score (HA stain, bin4 vs bin1, normalised to synonymous) (log10 ratio); higher = more cell-surface SGCB (functional). In outline:
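Using lentivirus at MOI <0.1, HA-tagged, YFP-fused human beta-sarcoglycan codon-saturation libraries were put into HEK293 cells with stable alpha-, gamma- and delta-sarcoglycan expression, in duplicate transductions. YFP-positive cells were collected by sorting 72 hours later, grown 5–7 days, stained on ice with Alexa Fluor 647 anti-HA, fixed, sorted into four 5% intensity bins and amplicon-sequenced. The functional score takes the median, across codons and transductions, of the log ratio of highest-bin to lowest-bin variant frequency. Within each section, synonymous variants were scaled to mean 0, SD 0.5.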
Consider MAAAAAAAAEQQSSNGPVKKSMREKAVERRSVNKEHNSNFKAGYIPIDEDRLHKTGLRGRKGNLAICVIILLFILAVINLIITLVIWAVIRIGPNGCDSMEFHESGLLRFKQVSDMGVIHPLYKSTVGGRRNENLVITGNNQPIVFQQGTTKLSVENNKTSITSDIGMQFFDPRTQNILFSTDYETHEFHLPSGVKSLNVQKASTERITSNATSDLNIKVDGRAIVRGNEGVFIMGKTIEFHMGGNMELKAENSIILNGSVMVSTTRLPSSSSGDQLGSGDIVRYKLCMCADGTLFKVQVTSQNMGCQISDNPCGNTH [W282I], for which the “SGCB cell-surface expression functional score (log10)” value was determined as 0.19. For the variant MAAAAAAAAEQQSSNGPVKKSMREKAVERRSVNKEHNSNFKAGYIPIDEDRLHKTGLRGRKGNLAICVIILLFILAVINLIITLVIWAVIRIGPNGCDSMEFHESGLLRFKQVSDMGVIHPLYKSTVGGRRNENLVITGNNQPIVFQQGTTKLSVENNKTSITSDIGMQFFDPRTQNILFSTDYETHEFHLPSGVKSLNVQKASTERITSNATSDLNIKVDGRAIVRGNEGVFIMGKTIEFHMGGNMELKAENSIILNGSVMVSTTRLPSSSSGDQLGSGDEVRYKLCMCADGTLFKVQVTSQNMGCQISDNPCGNTH [W282E], the “SGCB cell-surface expression functional score (log10)” value was -0.07. The result for MAAAAAAAAEQQSSNGPVKKSMREKAVERRSVNKEHNSNFKAGYIPIDEDRLHKTGLRGRKGNLAICVIILLFILAVINLIITLVIWAVIRIGPNGCDSMEFHESGLLRFKQVSDMGVIHPLYKSTVGGRRNENLVITGNNQPIVFQQGTTKLSVENNKTSITSDIGMQFFDPRTQNILFSTDYETHEFHLPSGVKSLNVQKASTERITSNATSDLNIKVDGRAIVRGNEGVFIMGKTIEFHMGGNMELKAENSIILNGSVMVSTTRLPSSSSGDQLGSGDHVRYKLCMCADGTLFKVQVTSQNMGCQISDNPCGNTH [W282H] reads 0.22; that for MAAAAAAAAEQQSSNGPVKKSMREKAVERRSVNKEHNSNFKAGYIPIDEDRLHKTGLRGRKGNLAICVIILLFILAVINLIITLVIWAVIRIGPNGCDSMEFHESGLLRFKQVSDMGVIHPLYKSTVGGRRNENLVITGNNQPIVFQQGTTKLSVENNKTSITSDIGMQFFDPRTQNILFSTDYETHEFHLPSGVKSLNVQKASTERITSNATSDLNIKVDGRAIVRGNEGVFIMGKTIEFHMGGNMELKAENSIILNGSVMVSTTRLPSSSSGDQLGSGDKVRYKLCMCADGTLFKVQVTSQNMGCQISDNPCGNTH [W282K], -0.08; that for MAAAAAAAAEQQSSNGPVKKSMREKAVERRSVNKEHNSNFKAGYIPIDEDRLHKTGLRGRKGNLAICVIILLFILAVINLIITLVIWAVIRIGPNGCDSMEFHESGLLRFKQVSDMGVIHPLYKSTVGGRRNENLVITGNNQPIVFQQGTTKLSVENNKTSITSDIGMQFFDPRTQNILFSTDYETHEFHLPSGVKSLNVQKASTERITSNATSDLNIKVDGRAIVRGNEGVFIMGKTIEFHMGGNMELKAENSIILNGSVMVSTTRLPSSSSGDQLGSGDFVRYKLCMCADGTLFKVQVTSQNMGCQISDNPCGNTH [W282F], 0.36. As for MAAAAAAAAEQQSSNGPVKKSMREKAVERRSVNKEHNSNFKAGYIPIDEDRLHKTGLRGRKGNLAICVIILLFILAVINLIITLVIWAVIRIGPNGCDSMEFHESGLLRFKQVSDMGVIHPLYKSTVGGRRNENLVITGNNQPIVFQQGTTKLSVENNKTSITSDIGMQFFDPRTQNILFSTDYETHEFHLPSGVKSLNVQKASTERITSNATSDLNIKVDGRAIVRGNEGVFIMGKTIEFHMGGNMELKAENSIILNGSVMVSTTRLPSSSSGDQLGSGDDVRYKLCMCADGTLFKVQVTSQNMGCQISDNPCGNTH [W282D], the “SGCB cell-surface expression functional score (log10)” value is -0.17. MAAAAAAAAEQQSSNGPVKKSMREKAVERRSVNKEHNSNFKAGYIPIDEDRLHKTGLRGRKGNLAICVIILLFILAVINLIITLVIWAVIRIGPNGCDSMEFHESGLLRFKQVSDMGVIHPLYKSTVGGRRNENLVITGNNQPIVFQQGTTKLSVENNKTSITSDIGMQFFDPRTQNILFSTDYETHEFHLPSGVKSLNVQKASTERITSNATSDLNIKVDGRAIVRGNEGVFIMGKTIEFHMGGNMELKAENSIILNGSVMVSTTRLPSSSSGDQLGSGDLVRYKLCMCADGTLFKVQVTSQNMGCQISDNPCGNTH [W282L]: the “SGCB cell-surface expression functional score (log10)” value turned out to be 0.08. The result for MAAAAAAAAEQQSSNGPVKKSMREKAVERRSVNKEHNSNFKAGYIPIDEDRLHKTGLRGRKGNLAICVIILLFILAVINLIITLVIWAVIRIGPNGCDSMEFHESGLLRFKQVSDMGVIHPLYKSTVGGRRNENLVITGNNQPIVFQQGTTKLSVENNKTSITSDIGMQFFDPRTQNILFSTDYETHEFHLPSGVKSLNVQKASTERITSNATSDLNIKVDGRAIVRGNEGVFIMGKTIEFHMGGNMELKAENSIILNGSVMVSTTRLPSSSSGDQLGSGDCVRYKLCMCADGTLFKVQVTSQNMGCQISDNPCGNTH [W282C] reads -0.37; that for MAAAAAAAAEQQSSNGPVKKSMREKAVERRSVNKEHNSNFKAGYIPIDEDRLHKTGLRGRKGNLAICVIILLFILAVINLIITLVIWAVIRIGPNGCDSMEFHESGLLRFKQVSDMGVIHPLYKSTVGGRRNENLVITGNNQPIVFQQGTTKLSVENNKTSITSDIGMQFFDPRTQNILFSTDYETHEFHLPSGVKSLNVQKASTERITSNATSDLNIKVDGRAIVRGNEGVFIMGKTIEFHMGGNMELKAENSIILNGSVMVSTTRLPSSSSGDQLGSGDGVRYKLCMCADGTLFKVQVTSQNMGCQISDNPCGNTH [W282G], 0.21; that for MAAAAAAAAEQQSSNGPVKKSMREKAVERRSVNKEHNSNFKAGYIPIDEDRLHKTGLRGRKGNLAICVIILLFILAVINLIITLVIWAVIRIGPNGCDSMEFHESGLLRFKQVSDMGVIHPLYKSTVGGRRNENLVITGNNQPIVFQQGTTKLSVENNKTSITSDIGMQFFDPRTQNILFSTDYETHEFHLPSGVKSLNVQKASTERITSNATSDLNIKVDGRAIVRGNEGVFIMGKTIEFHMGGNMELKAENSIILNGSVMVSTTRLPSSSSGDQLGSGDAVRYKLCMCADGTLFKVQVTSQNMGCQISDNPCGNTH [W282A], 0.11. The result for MAAAAAAAAEQQSSNGPVKKSMREKAVERRSVNKEHNSNFKAGYIPIDEDRLHKTGLRGRKGNLAICVIILLFILAVINLIITLVIWAVIRIGPNGCDSMEFHESGLLRFKQVSDMGVIHPLYKSTVGGRRNENLVITGNNQPIVFQQGTTKLSVENNKTSITSDIGMQFFDPRTQNILFSTDYETHEFHLPSGVKSLNVQKASTERITSNATSDLNIKVDGRAIVRGNEGVFIMGKTIEFHMGGNMELKAENSIILNGSVMVSTTRLPSSSSGDQLGSGWWVRYKLCMCADGTLFKVQVTSQNMGCQISDNPCGNTH [D281W] reads -1.51. On to MAAAAAAAAEQQSSNGPVKKSMREKAVERRSVNKEHNSNFKAGYIPIDEDRLHKTGLRGRKGNLAICVIILLFILAVINLIITLVIWAVIRIGPNGCDSMEFHESGLLRFKQVSDMGVIHPLYKSTVGGRRNENLVITGNNQPIVFQQGTTKLSVENNKTSITSDIGMQFFDPRTQNILFSTDYETHEFHLPSGVKSLNVQKASTERITSNATSDLNIKVDGRAIVRGNEGVFIMGKTIEFHMGGNMELKAENSIILNGSVMVSTTRLPSSSSGDQLGSGNWVRYKLCMCADGTLFKVQVTSQNMGCQISDNPCGNTH [D281N], for which the “SGCB cell-surface expression functional score (log10)” value is 0.25. The figure for MAAAAAAAAEQQSSNGPVKKSMREKAVERRSVNKEHNSNFKAGYIPIDEDRLHKTGLRGRKGNLAICVIILLFILAVINLIITLVIWAVIRIGPNGCDSMEFHESGLLRFKQVSDMGVIHPLYKSTVGGRRNENLVITGNNQPIVFQQGTTKLSVENNKTSITSDIGMQFFDPRTQNILFSTDYETHEFHLPSGVKSLNVQKASTERITSNATSDLNIKVDGRAIVRGNEGVFIMGKTIEFHMGGNMELKAENSIILNGSVMVSTTRLPSSSSGDQLGSGYWVRYKLCMCADGTLFKVQVTSQNMGCQISDNPCGNTH [D281Y] is 0.16; for MAAAAAAAAEQQSSNGPVKKSMREKAVERRSVNKEHNSNFKAGYIPIDEDRLHKTGLRGRKGNLAICVIILLFILAVINLIITLVIWAVIRIGPNGCDSMEFHESGLLRFKQVSDMGVIHPLYKSTVGGRRNENLVITGNNQPIVFQQGTTKLSVENNKTSITSDIGMQFFDPRTQNILFSTDYETHEFHLPSGVKSLNVQKASTERITSNATSDLNIKVDGRAIVRGNEGVFIMGKTIEFHMGGNMELKAENSIILNGSVMVSTTRLPSSSSGDQLGSGSWVRYKLCMCADGTLFKVQVTSQNMGCQISDNPCGNTH [D281S] it is -0.22; for MAAAAAAAAEQQSSNGPVKKSMREKAVERRSVNKEHNSNFKAGYIPIDEDRLHKTGLRGRKGNLAICVIILLFILAVINLIITLVIWAVIRIGPNGCDSMEFHESGLLRFKQVSDMGVIHPLYKSTVGGRRNENLVITGNNQPIVFQQGTTKLSVENNKTSITSDIGMQFFDPRTQNILFSTDYETHEFHLPSGVKSLNVQKASTERITSNATSDLNIKVDGRAIVRGNEGVFIMGKTIEFHMGGNMELKAENSIILNGSVMVSTTRLPSSSSGDQLGSGRWVRYKLCMCADGTLFKVQVTSQNMGCQISDNPCGNTH [D281R] it is -0.24. Regarding MAAAAAAAAEQQSSNGPVKKSMREKAVERRSVNKEHNSNFKAGYIPIDEDRLHKTGLRGRKGNLAICVIILLFILAVINLIITLVIWAVIRIGPNGCDSMEFHESGLLRFKQVSDMGVIHPLYKSTVGGRRNENLVITGNNQPIVFQQGTTKLSVENNKTSITSDIGMQFFDPRTQNILFSTDYETHEFHLPSGVKSLNVQKASTERITSNATSDLNIKVDGRAIVRGNEGVFIMGKTIEFHMGGNMELKAENSIILNGSVMVSTTRLPSSSSGDQLGSGPWVRYKLCMCADGTLFKVQVTSQNMGCQISDNPCGNTH [D281P], the “SGCB cell-surface expression functional score (log10)” value was -0.06. In the case of MAAAAAAAAEQQSSNGPVKKSMREKAVERRSVNKEHNSNFKAGYIPIDEDRLHKTGLRGRKGNLAICVIILLFILAVINLIITLVIWAVIRIGPNGCDSMEFHESGLLRFKQVSDMGVIHPLYKSTVGGRRNENLVITGNNQPIVFQQGTTKLSVENNKTSITSDIGMQFFDPRTQNILFSTDYETHEFHLPSGVKSLNVQKASTERITSNATSDLNIKVDGRAIVRGNEGVFIMGKTIEFHMGGNMELKAENSIILNGSVMVSTTRLPSSSSGDQLGSGQWVRYKLCMCADGTLFKVQVTSQNMGCQISDNPCGNTH [D281Q], the “SGCB cell-surface expression functional score (log10)” value was 0.18. The result for MAAAAAAAAEQQSSNGPVKKSMREKAVERRSVNKEHNSNFKAGYIPIDEDRLHKTGLRGRKGNLAICVIILLFILAVINLIITLVIWAVIRIGPNGCDSMEFHESGLLRFKQVSDMGVIHPLYKSTVGGRRNENLVITGNNQPIVFQQGTTKLSVENNKTSITSDIGMQFFDPRTQNILFSTDYETHEFHLPSGVKSLNVQKASTERITSNATSDLNIKVDGRAIVRGNEGVFIMGKTIEFHMGGNMELKAENSIILNGSVMVSTTRLPSSSSGDQLGSGVWVRYKLCMCADGTLFKVQVTSQNMGCQISDNPCGNTH [D281V] reads -0.16. Take MAAAAAAAAEQQSSNGPVKKSMREKAVERRSVNKEHNSNFKAGYIPIDEDRLHKTGLRGRKGNLAICVIILLFILAVINLIITLVIWAVIRIGPNGCDSMEFHESGLLRFKQVSDMGVIHPLYKSTVGGRRNENLVITGNNQPIVFQQGTTKLSVENNKTSITSDIGMQFFDPRTQNILFSTDYETHEFHLPSGVKSLNVQKASTERITSNATSDLNIKVDGRAIVRGNEGVFIMGKTIEFHMGGNMELKAENSIILNGSVMVSTTRLPSSSSGDQLGSGTWVRYKLCMCADGTLFKVQVTSQNMGCQISDNPCGNTH [D281T]: the “SGCB cell-surface expression functional score (log10)” value is -0.28.
